# From the PETadex activity labels (doi:10.3390/microorganisms12010138)
# B1: unnamed (protein)
# chain: MEKSVLIKGDNYDISGILSYKETVDKMPAVILCHGTGAQKNEVGDLFVILAEKLLQRGIASIRIDYAGCGDSKADQRELTFLGEVEDTKKAYQYICDLGCVDQKNIGILGFSQGARVVAELLKEMQEFTCVASWSGACQNGRGVFEGWFQEYYQEAEEHGYARIPMGWRDDLLLSKQWFDEIENTTPMDGLKKYTGPVLAVAGAADEIVPCSHTKEIMAEGTNEQSKMLILPGADHIFNVLSGDKTMSEHVLDVTADWFAEVMGGAKISK
# B2: unnamed (protein)
# chain: MQNPSAPVVETRQGALTGLTDENVHRWCGIPYAAPPVGDWRWRSPRPPERWDGVRDATAFSASSWQSSEYCQELGGGDPGQFSEDCLYLNVWSPVDRPGSLPVMVWLHGGGFTIGAGGLPPYHGKSLAARGVVVVTINYRLGHLGFFAHPALEGEEERVVHNFALLDQIAALEWVRENITAFGGDPHNVTLFGESAGARSVLSLLASPLAEGLFHKAIVQSGYTLPDTPRQQALQKGEALAAHFGLENATAEQLRAIPPESFWPLTAPLNIAPAPIVGDCVLPEAMLDVFFAARQHPVPVMIGSNSDEASVMAVFGIDLAGQIQKLRRERRFGLGLIKLLYPGVKGDEELGRQVCRDMAFTTMGYVVMQAQQRVGGLCWRYWFDYVAEAEHATYINGAWHGNEVPYVFDTLGQVEPSRQYVNERDLQFAARVADYWVSFARDAGTHDSLSGPTHWPACRKGRDVLLRIGVNKHAGFRLENRFMRARMSLFKRVMKHHVSLD
# B3: unnamed (protein)
# chain: MKKLLKVLLIIFLVIVVLVIGLVIFLTIASGKQNAPKEYWNAIASEGTIEKEYNKLGSYEFESKVYDAPKVDSHDNNFVVYMPKEEGTYPLVVMVNGSGTPWDKYKAVFEHFASWGYVVVGCNYEISWDGKHASETLDFALNTKEIADKVDTSKVAVCGHSQGGEGAFNAALEYDNSDMYKAIISLSPTNQELALGLKWGFNLDTDDMYAYRLENVTIPTMIIAGTGKFDSETVTPLYKMEDMFEQLNTDVVMARLSNNVDHGAVLYEANGYVIAWLDYYLKGIETNGTAFFGNEAEIKNNTRYQDFTSQKVK
# B4: unnamed (protein)
# chain: MKKLLKVLLIIFLVIVVLVIGLVIFLTIASGKQNAPKEYWNAIASEGTIEKEYNKLGSYEFESKVYDAPKVDSHDNNFVVYMPKEEGTYPLVVMVNGSGTPWDKYKAVFEHFASWGYVVVGCNYEISWDGKHASETLDFALNTKEIADKVDTSKVAVCGHSQGGEGAFNAALEYDNSDMYKAIISLSPTNQELALGLKWGFNLDTDDMYAYRLENVTIPTMIIAGTGKFDSETVTPLYKMEDMFEQLNTDVVMARLSNNVDHGAVLYEANGYVIAWLDYYLKGIETNGTAFFGNEAEIKNNTRYQDFTSQKV
# B5: unnamed (protein)
# chain: MNFPRASRLMQAAVLGGLMAVSAAATAQTNPYARGPNPTAASLEASAGPFTVRSFTVSRPSGYGAGTVYYPTNAGGTVGAIAIVPGYTARQSSIKWWGPRLASHGFVVITIDTNSTLDQPSSRSSQQMAALRQVASLNGTSSSPIYGKVDTARMGVMGWSMGGGGSLISAANNPSLKAAAPQAPWDSSTNFSSVTVPTLIFACENDSIAPVNSSALPIYDSMSRNAKQFLEINGGSHSCANSGNSNQALIGKKGVAWMKRFMDNDTRYSTFACENPNSTRVSDFRTANCS
# What was measured:
# PET [1] = test: Proxy for plastic degradation [Released monomer concentration (HPLC/LC-MS) (TPA)]; conditions: pH 7
# PET [2] = test: Proxy for plastic degradation [Released monomer concentration (HPLC/LC-MS) (MHET)]; conditions: pH 7
Protein,Proxy for plastic degradation (PET [1]),Proxy for plastic degradation (PET [2]; 37 °C),also measured
B1,4 µM,0 µM,–
B2,2 µM,0 µM,Proxy for plastic degradation (PET [1]; 37 °C): 0 µM; Proxy for plastic degradation (PET [2]): 0 µM
B3,6 µM,–,–
B4,–,–,"Proxy for plastic degradation (PET [1]; 37 °C, part of the chain shown): 0 µM; Proxy for plastic degradation (PET [2]; 37 °C, part of the chain shown): 0 µM"
B5,–,–,Proxy for plastic degradation (PET [2]; part of the chain shown): 370 µM
